The results in this text go back to patent publication US20230051715A1 (MABWELL THERAPEUTICS, published 2023).

Experiment [1] has as its target T1, human C1s mutant M20 (A320S) (human, UniProt P09871 16-688).
T1 construct: The entry is the mutant itself
T1 sequence: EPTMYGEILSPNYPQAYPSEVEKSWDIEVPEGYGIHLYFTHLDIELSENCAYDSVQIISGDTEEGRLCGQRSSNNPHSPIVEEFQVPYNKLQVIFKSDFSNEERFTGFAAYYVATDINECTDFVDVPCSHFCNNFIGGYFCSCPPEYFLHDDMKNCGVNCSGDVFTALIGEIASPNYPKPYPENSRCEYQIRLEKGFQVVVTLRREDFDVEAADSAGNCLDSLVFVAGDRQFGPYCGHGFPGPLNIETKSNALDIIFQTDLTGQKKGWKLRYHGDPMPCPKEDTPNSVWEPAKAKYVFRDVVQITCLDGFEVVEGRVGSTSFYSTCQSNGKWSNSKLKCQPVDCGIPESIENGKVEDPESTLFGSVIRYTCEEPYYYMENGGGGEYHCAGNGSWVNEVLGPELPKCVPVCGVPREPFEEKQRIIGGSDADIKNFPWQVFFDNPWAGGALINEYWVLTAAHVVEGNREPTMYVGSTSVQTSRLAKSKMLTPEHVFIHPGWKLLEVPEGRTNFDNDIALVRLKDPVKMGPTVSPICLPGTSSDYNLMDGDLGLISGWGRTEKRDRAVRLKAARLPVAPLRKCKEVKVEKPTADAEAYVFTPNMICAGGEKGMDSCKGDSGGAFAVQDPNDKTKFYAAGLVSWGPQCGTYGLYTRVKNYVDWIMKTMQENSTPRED
The experiment in a line: ELISA, plate coated with human C1s mutant M20: A320S, OD450nm. Here is the method:
(§1) ELISA was carried out by first coating 96-well plates with 200 ng/well of full-length or truncated C1s proteins overnight. The next morning, plates were blocked with SuperBlock T20 blocking buffer (Thermo Scientific 37536) for 1 h with gentle shaking. Then, various concentrations of anti-C1s antibodies diluted in SuperBlock T20 blocking buffer were added to the plates and incubated for 1 h with gentle shaking. Mouse IgG (Sigma-Aldrich 15381) and human IgG1 (BioXCell BP0297) were used as negative controls. The plates were washed before incubating with HRP conjugated secondary antibodies diluted in SuperBlock T20 blocking buffer (goat anti-mouse IgG (H+L) cross-adsorbed secondary antibody HRP (Invitrogen G-21040) or goat anti-human IgG antibody, HRP conjugate (Millipore AP309P)) for 1 h with gentle shaking. At last, the plates were washed and color developed with ELISA liquid HRP substrate (Sigma-Aldrich), followed by stopping the reaction with addition of 1M H₂SO₄ in the same volume as the ELISA liquid substrate. Bound antibody was measured by absorbance at OD₄₅₀ₙₘ.
(§2) Binding of anti-C1s antibodies to mutants M1-M20 of human C1s was measured by ELISA as described in Example 4, and results are shown in FIGS. 6B-6U. All anti-C1s humanized variants including hz2-7(H1L2), hz2-8(H1L2 G80A) and hz2-8(H1L2 G80A/T82A) maintained strong binding properties to the majority (16 out of 20) of C1s mutants including M1 (FIG. 6B), M2 (FIG. 6C), M3 (FIG. 6D). M4 (FIG. 6E), M7 (FIG. 6H), M8 (FIG. 6I), M10 (FIG. 6K), M11 (FIG. 6L), M12 (FIG. 6M), M13 (FIG. 6N), M15 (FIG. 6P), M16 (FIG. 6Q), M17 (FIG. 6R), M18 (FIG. 6S), M19 (FIG. 6T) and M20 (FIG. 6U).
(In general: An ELISA detects its analyte on a solid surface through an enzyme-linked reagent.)

Experiment [2] addresses T2, human C1s mutant M3 (M277I, P278S & N329D) (human, UniProt P09871 16-688).
T2 construct: The entry is the mutant itself
T2 sequence: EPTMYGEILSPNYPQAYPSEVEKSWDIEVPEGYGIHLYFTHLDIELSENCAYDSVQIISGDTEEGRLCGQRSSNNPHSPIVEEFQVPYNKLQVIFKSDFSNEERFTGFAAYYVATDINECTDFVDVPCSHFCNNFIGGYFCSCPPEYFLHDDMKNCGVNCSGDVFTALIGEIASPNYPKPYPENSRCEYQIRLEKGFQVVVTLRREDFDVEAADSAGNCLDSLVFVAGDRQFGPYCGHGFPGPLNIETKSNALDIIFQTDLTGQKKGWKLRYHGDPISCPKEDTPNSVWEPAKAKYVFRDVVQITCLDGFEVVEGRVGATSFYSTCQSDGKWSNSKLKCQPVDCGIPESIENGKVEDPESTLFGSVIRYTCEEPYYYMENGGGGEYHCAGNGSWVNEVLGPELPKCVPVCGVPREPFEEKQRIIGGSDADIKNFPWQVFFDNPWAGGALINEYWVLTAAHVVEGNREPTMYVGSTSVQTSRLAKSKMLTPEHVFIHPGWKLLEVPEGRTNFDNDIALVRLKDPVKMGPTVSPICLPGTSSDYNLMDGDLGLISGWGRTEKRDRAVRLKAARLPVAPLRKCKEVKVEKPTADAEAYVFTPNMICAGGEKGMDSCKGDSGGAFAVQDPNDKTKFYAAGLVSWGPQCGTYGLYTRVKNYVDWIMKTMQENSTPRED
The experiment in a line: ELISA, plate coated with human C1s mutant M3: M277I, P278S, N329D, OD450nm. Here is the method: as §1, §2

B1: Anti-C1s antibody hz2-8 (H1L2 G80A) (antibody, V domains shown)
VH: QVQLVQSGAEVKKPGASVKVSCKASGFNIKEYYMHWVRQAPEQGLEWMGWIDPENADTIYAQKFQGRVTITADTSTNTAYMELSSLRSEDTAVYYCARSRLFFAYWGQGTLVTVSS
VL: DIQMTQSPKSLSASVGDRVTITCRASQDVRTALDWYQQKPGQSPKLLIYSASYRYSGVPSRFSGSGSGTDFTLTISSLQPEDFATYYCQQQYTTPYTFGQGTKLEIKR
notes: Humanized variant with G80A in HC CDR2 (already in the entry), human IgG1 / kappa
B1: the half-maximal effective concentration (EC50) (as a rule, the concentration needed to bring the measured effect to its halfway point) in experiment [1] worked out at 3 ng/mL; in experiment [2] it was 6 ng/mL.

B2: Anti-C1s antibody hz2-8 (H1L2 G80A/T82A) (antibody, V domains shown)
VH: QVQLVQSGAEVKKPGASVKVSCKASGFNIKEYYMHWVRQAPEQGLEWMGWIDPENADAIYAQKFQGRVTITADTSTNTAYMELSSLRSEDTAVYYCARSRLFFAYWGQGTLVTVSS
VL: DIQMTQSPKSLSASVGDRVTITCRASQDVRTALDWYQQKPGQSPKLLIYSASYRYSGVPSRFSGSGSGTDFTLTISSLQPEDFATYYCQQQYTTPYTFGQGTKLEIKR
notes: Humanized variant with G80A and T82A in HC CDR2 (already in the entry), human IgG1 / kappa
As for B2, the EC50 was 5 ng/mL in experiment [1] and 4 ng/mL in experiment [2].

B3: Anti-C1s antibody hz2-7(H1L2) (antibody, V domains shown)
VH: EVQLLESGGGLVQPGGSLRLSCAASGFTFSNYFMNWVRQAPGKGLEWVSEIRLKFTNYATHYADSVKGRFTISRDDSKSTLYLQMNSLRAEDTAVYYCTRDYGSRNGYFDYWGQGTLVTVSS
VL: DIVMTQTPLSLPVTPGEPASISCRSSKSLLHSNGNTFLYWFLQKPGQSPQLLIYRMSNLASGVPDRFSGSGSGTDFTLKISRVEAEDVGVYYCMQHLEYPYTFGGGTKLEIKR
notes: Humanized, human IgG1 / kappa; also called hz2-7(1L2)
Consider B3, for which the results for the EC50 in experiment [1] and in experiment [2] were 4 ng/mL and 8 ng/mL, respectively.
